# Assay results reported in patent US20160024487.
# How the values were obtained:
# human α-thrombin (FIIa) = human α-thrombin (FIIa) (UniProt P00734)
# [1] = test system: FpA_P quenched fluorescence substrate Lys(Dnp)-DFLAEGGGPRIVGG-Lys(Abz)
# [2] = test system: 73k-HEP-[N]-FX ins[194]>[DFLAEGGGVR]-HPC4
# [3] = test system: 21k-HEP-[N]-FX ins[194]>[DFLAEGGGVR]-HPC4
# [4] = test system: At least 20 sequences selected from the QF-substrate library
# [5] = test system: FX ins[194]>[DFLAEGGGPR]-HPC4
# Sequence of FX ins[194]>[DFLAEGGGPR]-HPC4 (chain, as listed by the source): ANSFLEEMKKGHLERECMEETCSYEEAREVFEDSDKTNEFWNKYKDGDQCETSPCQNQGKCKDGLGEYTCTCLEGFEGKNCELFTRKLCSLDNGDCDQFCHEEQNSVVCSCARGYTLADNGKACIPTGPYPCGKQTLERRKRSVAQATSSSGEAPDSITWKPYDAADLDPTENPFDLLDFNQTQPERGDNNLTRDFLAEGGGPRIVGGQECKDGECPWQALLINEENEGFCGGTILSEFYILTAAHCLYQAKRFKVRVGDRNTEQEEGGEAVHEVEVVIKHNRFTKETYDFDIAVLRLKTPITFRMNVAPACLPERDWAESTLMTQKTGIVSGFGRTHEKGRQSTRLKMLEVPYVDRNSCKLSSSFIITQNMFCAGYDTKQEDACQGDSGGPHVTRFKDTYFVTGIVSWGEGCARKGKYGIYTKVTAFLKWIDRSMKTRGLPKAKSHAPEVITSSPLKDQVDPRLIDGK
# [6] = test system: FX ins[194]>[DFLAEGGGVR]-HPC4
# Sequence of FX ins[194]>[DFLAEGGGVR]-HPC4 (chain, as listed by the source): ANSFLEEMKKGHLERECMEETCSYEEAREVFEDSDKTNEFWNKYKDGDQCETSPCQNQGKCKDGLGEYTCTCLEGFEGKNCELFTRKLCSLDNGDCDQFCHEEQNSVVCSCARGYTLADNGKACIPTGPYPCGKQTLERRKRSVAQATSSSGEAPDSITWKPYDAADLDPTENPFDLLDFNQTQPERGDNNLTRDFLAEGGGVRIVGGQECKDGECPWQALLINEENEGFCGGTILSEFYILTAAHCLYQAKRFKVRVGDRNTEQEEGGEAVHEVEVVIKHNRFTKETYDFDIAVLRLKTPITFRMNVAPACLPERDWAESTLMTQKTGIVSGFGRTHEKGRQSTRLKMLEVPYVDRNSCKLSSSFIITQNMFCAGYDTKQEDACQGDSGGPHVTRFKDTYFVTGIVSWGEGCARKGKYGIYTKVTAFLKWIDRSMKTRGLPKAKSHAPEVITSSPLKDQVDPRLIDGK
# [7] = test system: 40k-HEP-[N]-FX ins[194]>[DFLAEGGGVR]-HPC4
# [8] = test system: Lys(Dnp)-ATNATFQPRIVGG-Lys(Abz)
# [9] = test system: Lys(Dnp)-ATNATSSPRIVGG-Lys(Abz)
# [10] = test system: Lys(Dnp)-ATNATINPRIVGG-Lys(Abz)
# [11] = test system: Lys(Dnp)-ATNATAVPRIVGG-Lys(Abz)
# [12] = test system: Lys(Dnp)-ATNATQQPRIVGG-Lys(Abz)
# [13] = test system: Lys(Dnp)-ATNATRIPRIVGG-Lys(Abz)
# [14] = test system: Lys(Dnp)-ATNATTEPRIVGG-Lys(Abz)
# [15] = test system: Lys(Dnp)-ATNATHNPRIVGG-Lys(Abz)
# [16] = test system: Lys(Dnp)-ATNATVSPRIVGG-Lys(Abz)
# [17] = test system: Lys(Dnp)-ATNATVFPRIVGG-Lys(Abz)
# [18] = test system: Lys(Dnp)-ATNATVLPRIVGG-Lys(Abz)
# [19] = test system: Lys(Dnp)-ATNATNDPRIVGG-Lys(Abz)
# [20] = test system: Lys(Dnp)-ATNATKTPRIVGG-Lys(Abz)
# [21] = test system: Lys(Dnp)-ATNATEAPRIVGG-Lys(Abz)
# [22] = test system: Lys(Dnp)-ATNATIDPRIVGG-Lys(Abz)
# [23] = test system: Lys(Dnp)-DFLAEGGGPRIVGG-Lys(Abz)
# [24] = test system: Lys(Dnp)-DNEEGFFSARIVGG-Lys(Abz)
# [25] = test system: Lys(Dnp)-DQVTVAMTPRIVGG-Lys(Abz)
# [26] = test system: Lys(Dnp)-ATNATPDPRIVGG-Lys(Abz)
# [27] = test system: Lys(Dnp)-ATNATPFPRIVGG-Lys(Abz)
# [28] = test system: Lys(Dnp)-ATNATDFPRIVGG-Lys(Abz)
# [29] = test system: Lys(Dnp)-EDSDRAIEGRIVGG-Lys(Abz)
# [30] = test system: Lys(Dnp)-ATNATHGPRIVGG-Lys(Abz)
# [31] = test system: Lys(Dnp)-ATNATHFPRIVGG-Lys(Abz)
# [32] = test system: Lys(Dnp)-ATNATYKPRIVGG-Lys(Abz)
# [33] = test system: PAR 1 control substrate sequence [Lys(Dnp)-ATNATLDPRIVGG-Lys(Abz)]
# [34] = test system: Lys(Dnp)-ATNATTNPRIVGG-Lys(Abz)
# [35] = test system: Lys(Dnp)-ATNATFWPRIVGG-Lys(Abz)
# [36] = test system: Lys(Dnp)-ATNATDKPRIVGG-Lys(Abz)
# [37] = test system: Lys(Dnp)-ATNATDEPRIVGG-Lys(Abz)
# [38] = test system: Lys(Dnp)-ATNATKMPRIVGG-Lys(Abz)
# [39] = test system: Lys(Dnp)-SEYQTFFNPRIVGG-Lys(Abz)
# [40] = test system: Lys(Dnp)-ATNATTDPRIVGG-Lys(Abz)
# [41] = test system: Lys(Dnp)-ATNATGNPRIVGG-Lys(Abz)
# [42] = test system: Lys(Dnp)-ATNATHHPRIVGG-Lys(Abz)
# [43] = test system: Lys(Dnp)-ATNATLVPRIVGG-Lys(Abz)
# [44] = test system: Lys(Dnp)-ATNATQNPRIVGG-Lys(Abz)
# [45] = test system: Lys(Dnp)-ATNATANPRIVGG-Lys(Abz)
# [46] = test system: Lys(Dnp)-ATNATAMPRIVGG-Lys(Abz)
# [47] = test system: Lys(Dnp)-ATNATEVPRIVGG-Lys(Abz)
# [48] = test system: Lys(Dnp)-ATNATARPRIVGG-Lys(Abz)
# [49] = test system: Lys(Dnp)-ATNATWPPRIVGG-Lys(Abz)
# [50] = test system: Lys(Dnp)-NESTTKIKPRIVGG-Lys(Abz)
# [51] = test system: Lys(Dnp)-ATNATKHPRIVGG-Lys(Abz)
# [52] = test system: Lys(Dnp)-ATNATDHPRIVGG-Lys(Abz)
# [53] = test system: Lys(Dnp)-ATNATQPPRIVGG-Lys(Abz)
# [54] = test system: Lys(Dnp)-ATNATQDPRIVGG-Lys(Abz)
# [55] = test system: Lys(Dnp)-ATNATNPPRIVGG-Lys(Abz)
# [56] = test system: Lys(Dnp)-ATNATNGPRIVGG-Lys(Abz)
# [57] = test system: Lys(Dnp)-ATNATFIPRIVGG-Lys(Abz)
# [58] = test system: Lys(Dnp)-ATNATDIPRIVGG-Lys(Abz)
# [59] = test system: Lys(Dnp)-ATNATKYPRIVGG-Lys(Abz)
# [60] = test system: Lys(Dnp)-ATNATEPPRIVGG-Lys(Abz)
# [61] = test system: Lys(Dnp)-ATNATPAPRIVGG-Lys(Abz)
# Sequence of FX [191-194]>[LTPR]-HPC4 (chain, as listed by the source): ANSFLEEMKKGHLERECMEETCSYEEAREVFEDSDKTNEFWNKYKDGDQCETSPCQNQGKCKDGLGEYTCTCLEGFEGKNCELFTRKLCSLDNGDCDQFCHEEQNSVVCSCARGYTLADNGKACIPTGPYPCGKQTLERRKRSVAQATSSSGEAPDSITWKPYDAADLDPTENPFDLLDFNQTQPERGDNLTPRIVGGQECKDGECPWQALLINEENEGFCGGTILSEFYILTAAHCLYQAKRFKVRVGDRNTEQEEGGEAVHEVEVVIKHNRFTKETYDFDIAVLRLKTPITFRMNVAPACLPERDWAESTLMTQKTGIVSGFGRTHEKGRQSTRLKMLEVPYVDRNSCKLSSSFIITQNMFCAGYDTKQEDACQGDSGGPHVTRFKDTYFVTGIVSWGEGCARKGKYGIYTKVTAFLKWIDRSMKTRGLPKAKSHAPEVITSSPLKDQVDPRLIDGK
substance,measurement,setting,value
FX-HPC4,kcat/KM,human α-thrombin (FIIa),No Activity
human α-thrombin (FIIa),"kcat of activation by α-thrombin, relative to FX [191-194]>[MTPR]-HPC4",FX [191-194]>[LTPR]-HPC4,each of which have 5-10 fold higher kcat values than FX [191-194]>[MTPR]-HPC4
same,cleavage rate (kcat/KM) by thrombin,[1],"The most improved natural substrate was shown to be the FpA_P sequence, which has a proline residue at X2 instead of the naturally occurring valine"
same,"kinetic parameters (kcat, KM and kcat/KM) of activation, compared with the unconjugated molecule",[2],there is no significant effect of hepylation on the observed kinetic parameters for the tested molecule
same,"kinetic parameters (kcat, KM and kcat/KM) of activation, compared with the unconjugated molecule",[3],there is no significant effect of hepylation on the observed kinetic parameters for the tested molecule
same,"cleavage rate (kcat/KM) by thrombin, fold improvement over the parent PAR-1 sequence",[4],>20-fold improved cleavage rates (kcat/KM) over the parent PAR-1 sequence
same,"activation rate (kcat/KM) by α-thrombin, relative to FX ins[194]>[DFLAEGGGVR]-HPC4",[5],This activation rate is 10× the observed activation rate for a variant having the unmodified FpA sequence (FX ins[194]>[DFLAEGGGVR]-HPC4)
same,"kcat of activation by α-thrombin, relative to FX [191-194]>[MTPR]-HPC4",[6],each of which have 5-10 fold higher kcat values than FX [191-194]>[MTPR]-HPC4
same,"kinetic parameters (kcat, KM and kcat/KM) of activation, compared with the unconjugated molecule",[7],there is no significant effect of hepylation on the observed kinetic parameters for the tested molecule
Human plasma purified α-thrombin,FIIa kcat/KM,[8],30000 M⁻¹ s⁻¹
same,kcat/KM,[8],30000 M⁻¹ s⁻¹
same,kcat/KM,[9],1000 M⁻¹ s⁻¹
same,kcat/KM,[10],10000 M⁻¹ s⁻¹
same,FIIa kcat/KM,[11],9700 M⁻¹ s⁻¹
same,kcat/KM,[11],9700 M⁻¹ s⁻¹
same,kcat/KM,[12],10000 M⁻¹ s⁻¹
same,kcat/KM,[13],1000 M⁻¹ s⁻¹
same,kcat/KM,[14],700 M⁻¹ s⁻¹
same,kcat/KM,[15],800 M⁻¹ s⁻¹
same,FIIa kcat/KM,[16],7600 M⁻¹ s⁻¹
same,kcat/KM,[16],7600 M⁻¹ s⁻¹
same,FIIa kcat/KM,[17],8400 M⁻¹ s⁻¹
same,kcat/KM,[17],8400 M⁻¹ s⁻¹
same,kcat/KM,[18],5000 M⁻¹ s⁻¹
same,kcat/KM,[19],3 M⁻¹ s⁻¹
same,kcat/KM,[20],610 M⁻¹ s⁻¹
same,kcat/KM,[21],400 M⁻¹ s⁻¹
same,kcat/KM,[22],2000 M⁻¹ s⁻¹
same,kcat/KM,[23],40000 M⁻¹ s⁻¹
same,kcat/KM,[24],300 M⁻¹ s⁻¹
same,kcat/KM,[25],30000 M⁻¹ s⁻¹
same,kcat/KM,[26],2000 M⁻¹ s⁻¹
same,FIIa kcat/KM,[27],9000 M⁻¹ s⁻¹
same,kcat/KM,[27],9000 M⁻¹ s⁻¹
same,kcat/KM,[28],600 M⁻¹ s⁻¹
same,kcat/KM,[29],0 M⁻¹ s⁻¹
same,kcat/KM,[30],1000 M⁻¹ s⁻¹
same,kcat/KM,[31],1000 M⁻¹ s⁻¹
same,FIIa kcat/KM,[32],5000 M⁻¹ s⁻¹
same,kcat/KM,[32],5000 M⁻¹ s⁻¹
same,kcat/KM,[33],3000 M⁻¹ s⁻¹
same,kcat/KM,[34],600 M⁻¹ s⁻¹
same,FIIa kcat/KM,[35],20000 M⁻¹ s⁻¹
same,kcat/KM,[35],20000 M⁻¹ s⁻¹
same,kcat/KM,[36],10 M⁻¹ s⁻¹
same,kcat/KM,[37],0.0004 M⁻¹ s⁻¹
same,kcat/KM,[38],800 M⁻¹ s⁻¹
same,kcat/KM,[39],20000 M⁻¹ s⁻¹
same,kcat/KM,[40],1000 M⁻¹ s⁻¹
same,kcat/KM,[41],700 M⁻¹ s⁻¹
same,kcat/KM,[42],2000 M⁻¹ s⁻¹
same,FIIa kcat/KM,[43],30000 M⁻¹ s⁻¹
same,kcat/KM,[43],30000 M⁻¹ s⁻¹
same,kcat/KM,[44],2000 M⁻¹ s⁻¹
same,kcat/KM,[45],4000 M⁻¹ s⁻¹
same,kcat/KM,[46],9000 M⁻¹ s⁻¹
same,kcat/KM,[47],200 M⁻¹ s⁻¹
same,FIIa kcat/KM,[48],20000 M⁻¹ s⁻¹
same,kcat/KM,[48],20000 M⁻¹ s⁻¹
same,FIIa kcat/KM,[49],9700 M⁻¹ s⁻¹
same,kcat/KM,[49],9700 M⁻¹ s⁻¹
same,kcat/KM,[50],20000 M⁻¹ s⁻¹
same,kcat/KM,[51],900 M⁻¹ s⁻¹
same,kcat/KM,[52],1000 M⁻¹ s⁻¹
same,kcat/KM,[53],0 M⁻¹ s⁻¹
same,kcat/KM,[54],500 M⁻¹ s⁻¹
same,kcat/KM,[55],9 M⁻¹ s⁻¹
same,kcat/KM,[56],500 M⁻¹ s⁻¹
same,kcat/KM,[57],7000 M⁻¹ s⁻¹
same,kcat/KM,[58],30 M⁻¹ s⁻¹
same,kcat/KM,[59],700 M⁻¹ s⁻¹
same,kcat/KM,[60],2 M⁻¹ s⁻¹
same,kcat/KM,[61],7000 M⁻¹ s⁻¹
